Paper PMC8907715, “Selection and identification of high‐affinity aptamer of Kunitz trypsin inhibitor and their application in rapid and specific detection”

T1: Kunitz trypsin inhibitor (KTI) (UniProt P01070)
T1 sequence: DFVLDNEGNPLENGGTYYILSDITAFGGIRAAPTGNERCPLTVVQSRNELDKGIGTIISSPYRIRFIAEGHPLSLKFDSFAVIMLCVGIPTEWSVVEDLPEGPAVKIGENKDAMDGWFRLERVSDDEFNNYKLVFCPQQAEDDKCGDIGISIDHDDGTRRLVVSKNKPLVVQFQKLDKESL

T2: Kunitz trypsin inhibitor (KTI) (UniProt P01070 25-205)
T2 sequence: T1 sequence


Target: T1, Kunitz trypsin inhibitor (KTI)
Experiment: GO fluorescence assay
Conditions: FAM-aptamer 0-600 nM with GO 60 min, then 1 uM KTI 2 h at room temperature in the dark; assay buffer, salt and pH not stated (oligos dissolved in TE pH 8.0)

| Molecule | Kd |
| --- | --- |
| CCAACCTGTGGCATTTGGTAACTTGATCTTACGGTGTTCG [Akti-10] | 22.6 nM |
| CTGGTGTTTTCTTTACGCATAACAAGGCCCCTGAGAGGCT [Akti-9] | 134 nM |
| GGTCGTGAGGCCCACCGCTGAGCTCTAGTATCGCTCGGCG [Akti-11] | 116 nM |
| TCTGGCTTCTGATCTGATGTTTTTACTATCGGTATTTCTA [Akti-15] | 67.9 nM |
| TGTACCGCCCACCTGCCGCTAACGGCGGTGCTGCGGTGCG [Akti-28] | 164 nM |

Target: T2, Kunitz trypsin inhibitor (KTI)
Experiment: GO fluorescence assay; text gives 52.6 ± 11.4; FAM-aptamer 0-600 nM with GO 60 min, then 1 uM KTI 2 h at room temperature in the dark; assay buffer, salt and pH not stated (oligos dissolved in TE pH 8.0)
Conditions: protein: commercial; label: 5'-FAM

| Molecule | Kd |
| --- | --- |
| CTTCGTATCCTGTGCTGCAGTTGTTTTTAAGTGCTGGGAG (ssDNA) [Akti-5] | 52.5 ± 11.3 nM |
